The nature of data set [1]: Enzymatic kinetic measurements of purified proteins with compound A as substrate. Format: biochemical. The settings on record: purified protein, compound A 0-1000 μM as substrate. The procedure: Based on the results of HPLC, representative engineered proteins were selected for protein purification. Further protein characterization, such as Km, Vmax and Kcat, was performed on the 8 engineered proteins from Table 2. Conventional Ni column affinity chromatography was used for protein purification and protein extract purity was assessed by SDS-PAGE analysis. After determining protein concentration by BCA method, enzyme activity was determined.

The test system of data set [2] is rice (Jinjing 818). The data set is described as follows: Transgenic rice seedlings, compound B added to medium at rooting phase. Format: in vivo. The conditions noted are these: at least 1 μM compound B in medium (0.5 and 1 μM for SEQ ID NO: 42), 17-26 days. The procedure:
Plant transformation vectors were constructed, each comprising a recombinant DNA molecule encoding an engineered protein (SEQ ID NO: 42/38/82/86/102/106/126/138/142) with the protein-coding sequence optimized for monocot expression, and rice (Jinjing 818) calli were transformed with these vectors using Agrobacterium tumifaciens and standard methods known in the art. Different concentrations of hormone herbicide compound B were added at the rooting phase of the rice seedlings to test hormone resistance, wherein, the test results of control Jinjing 818 plants and transgenic Jinjing 818 plants comprising the protein-coding gene of SEQ ID NO: 42 after adding 0.5 μM and 1 μM compound B to medium for 19 days are shown in FIG. 1. The test results of control Jinjing 818 plants and transgenic Jinjing 818 plants comprising the protein-coding genes of SEQ ID NO: 38/82/86/102/106/126/138/142 after adding 1 μM compound B to medium are shown in FIG. 5-11.

Data set [3] is described as follows: Conversion rate of substrate compound A by E. coli expressing each engineered protein (HPLC, oxygenase activity). Format: biochemical. From the text:
The high-throughput bacterial protein expression was achieved by cloning the synthesized gene that encodes each engineered protein into a bacterial expression vector with a C-terminal histidine tag (His-tag). The vectors were transformed into Escherichia coli (E. coli), and expression of the engineered proteins was induced. E. coli cultures were selected and cultured in centrifuge tubes overnight, meanwhile, added with substrates and IPTG, and the cultures were centrifuged to pellet the bacteria the next day. Alternatively, E. coli cultures were selected and cultured in centrifuge tubes overnight, and centrifuged to pellet the bacteria after adding substrates for reaction the next day. The supernatant of reaction solution was pipetted into a 96-well plate and the absorbance at 510 nm from 4-aminoantipyrine and potassium ferricyanide was measured by an endpoint colorimetric method to detect phenol products. Substrate reduction and product yield were measured by high performance liquid chromatography (HPLC) to detect the oxygenase activity (i.e., enzymatic activity) of the engineered proteins, and the activities of the proteins were compared by calculating conversion rates.
Conversion rate=(Peak area of initial substrate−Peak area of substrate after reaction)/Peak area of initial substrate*100%

The subject of data set [4] is rice (Jinjing 818). The data set is described as follows: Transgenic rice T0 plantlets in greenhouse sprayed with compound B. It is filed as in vivo. The settings on record: medicated medium test and greenhouse spraying test for T0 generation, compound B. How it is done: Then, the obtained regenerated TO generation transgenic plantlets grew in the greenhouse, and were sprayed with compound B at the growth stage when approximately two leaves unfolded and the third one just appearing. Resistance levels of plants were recorded and evaluated after spraying treatment, wherein, the test results of control Jinjing 818 plants and transgenic Jinjing 818 plants comprising the protein-coding gene of SEQ ID NO: 42 after applying 20 g, 40 g, 60 g, 80 g, 100 g, 120 g/mu (1 mu=1/15 ha) compound B for corresponding days (DAT) are shown in FIG. 2.

The test system of data set [5] is Arabidopsis thaliana. As to the kind of experiment: T2 transgenic Arabidopsis thaliana seeds screened on compound A medium. Format: in vivo. The conditions noted are these: 0.15 μM compound A in medium, 11-24 days. From the text:
Engineered proteins were selected for Arabidopsis thaliana transformation and plant analysis. DNA constructs were transformed into Arabidopsis thaliana using Agrobacterium tumifaciens and standard methods known in the art.
The transformed TO transgenic plantlets grew in the greenhouse. T1 generation Arabidopsis thaliana plant seeds produced by transformation of all constructs were collected after approximately 60 days of growth. Transgenic T1 generation Arabidopsis thaliana plants were screened by adding HYG to medium for T1 generation. T1 plants were selfed to produce seeds of T2 generation Arabidopsis thaliana plants. Wherein, compound A was added to medium to screen and test T2 generation Arabidopsis thaliana plant seeds, that were produced by all constructs, comprising unique events screened by T1 generation.

[6] abbreviates: Reaction condition 2: bacteria cultured overnight, 8 times dose of substrate compound A of condition 1 added, react 3 hours the next day.

B1: SEQ ID NO: 38: RdpA mutant L82H + V187L + F182W + R104G (protein)
chain: MHAALSPLSQRFERIAVQPLTGVLGAEITGVDLREPLDDSTWNEILDAFHTYQVIYFPGQAITNEQHIAFSRRFGPVDPVPHLKSIEGYPEVQMIRREANESGGVIGDDWHTDSTFLDAPPAAVVMRAIDVPEHGGDTGFLSMYTAWETLSPTMQATIEGLNVVHSATRVFGSLYQAQNRRWSNTSLKVMDVDAGDRETVHPLVVTHPGSGRKGLYVNQVYCQRIEGMTDAESKPLLQFLYEHATRFDFTCRVRWKKDQVLVWDNLCTMHRAVPDYAGKFRYLTRTTVGGVRPAR
In the case of B1, in data set [1], the Kcat is reported as 0.43 S^−1; the Michaelis-Menten constant (Km) (in general, the concentration of substrate that gives half-maximal velocity) was found to be 54.6 µM; the Vmax is 49.9. Besides, in data set [2], the “drug resistance (tolerance to compound B) compared with wild-type plants” value is reported as “exhibited better drug resistance”. The Conversion rate in data set [3] (Reaction condition 1: bacteria cultured overnight, substrate compound A and IPTG added to react overnight) is 96.9%. The “tolerance compared with the wild types (summary)” value in data set [4] was “exhibited apparent tolerance”.

B2: SEQ ID NO: 78: RdpA mutant L82H + V187L + F182W + G103L + R180D (protein)
chain: MHAALSPLSQRFERIAVQPLTGVLGAEITGVDLREPLDDSTWNEILDAFHTYQVIYFPGQAITNEQHIAFSRRFGPVDPVPHLKSIEGYPEVQMIRREANESLRVIGDDWHTDSTFLDAPPAAVVMRAIDVPEHGGDTGFLSMYTAWETLSPTMQATIEGLNVVHSATRVFGSLYQAQNDRWSNTSLKVMDVDAGDRETVHPLVVTHPGSGRKGLYVNQVYCQRIEGMTDAESKPLLQFLYEHATRFDFTCRVRWKKDQVLVWDNLCTMHRAVPDYAGKFRYLTRTTVGGVRPAR
In data set [3] (setting [6]), B2 came in with a Conversion rate of 79%. Moreover, in data set [5], the “drug resistance compared with wild-type Arabidopsis thaliana (longer roots and larger leaves)” value is “exhibited better drug resistance”.

B3: SEQ ID NO: 106: RdpA mutant L82H + V187L + F182W + G103L + T112S (protein)
chain: MHAALSPLSQRFERIAVQPLTGVLGAEITGVDLREPLDDSTWNEILDAFHTYQVIYFPGQAITNEQHIAFSRRFGPVDPVPHLKSIEGYPEVQMIRREANESLRVIGDDWHSDSTFLDAPPAAVVMRAIDVPEHGGDTGFLSMYTAWETLSPTMQATIEGLNVVHSATRVFGSLYQAQNRRWSNTSLKVMDVDAGDRETVHPLVVTHPGSGRKGLYVNQVYCQRIEGMTDAESKPLLQFLYEHATRFDFTCRVRWKKDQVLVWDNLCTMHRAVPDYAGKFRYLTRTTVGGVRPAR
Regarding B3, the “drug resistance (tolerance to compound B) compared with wild-type plants” value in data set [2] was “exhibited better drug resistance”. Further, in data set [3] (setting [6]), the Conversion rate came to 86.3%. For the same molecule, in data set [4], the “tolerance compared with the wild types (summary)” value is “exhibited apparent tolerance”.

B4: SEQ ID NO: 98: RdpA mutant L82H + V187L + F182W + G103L + V80T (protein)
chain: MHAALSPLSQRFERIAVQPLTGVLGAEITGVDLREPLDDSTWNEILDAFHTYQVIYFPGQAITNEQHIAFSRRFGPVDPTPHLKSIEGYPEVQMIRREANESLRVIGDDWHTDSTFLDAPPAAVVMRAIDVPEHGGDTGFLSMYTAWETLSPTMQATIEGLNVVHSATRVFGSLYQAQNRRWSNTSLKVMDVDAGDRETVHPLVVTHPGSGRKGLYVNQVYCQRIEGMTDAESKPLLQFLYEHATRFDFTCRVRWKKDQVLVWDNLCTMHRAVPDYAGKFRYLTRTTVGGVRPAR
With B4, the Conversion rate in data set [3] (setting [6]) is listed as 81%. In addition, the “drug resistance compared with wild-type Arabidopsis thaliana (longer roots and larger leaves)” value in data set [5] was “exhibited better drug resistance”.

(Values after patent US20250163449A1, “HERBICIDE-TOLERANT GENES AND METHOD FOR USING SAME” (QINGDAO KINGAGROOT CHEMICAL COMPOUND CO., LTD., priority 2022, published 2025).)
